T1: human IL-11Rα, full length, stably expressed on STAT3-Luc HEK293 cells (human, UniProt Q14626 23-422)
T1 sequence (looked up): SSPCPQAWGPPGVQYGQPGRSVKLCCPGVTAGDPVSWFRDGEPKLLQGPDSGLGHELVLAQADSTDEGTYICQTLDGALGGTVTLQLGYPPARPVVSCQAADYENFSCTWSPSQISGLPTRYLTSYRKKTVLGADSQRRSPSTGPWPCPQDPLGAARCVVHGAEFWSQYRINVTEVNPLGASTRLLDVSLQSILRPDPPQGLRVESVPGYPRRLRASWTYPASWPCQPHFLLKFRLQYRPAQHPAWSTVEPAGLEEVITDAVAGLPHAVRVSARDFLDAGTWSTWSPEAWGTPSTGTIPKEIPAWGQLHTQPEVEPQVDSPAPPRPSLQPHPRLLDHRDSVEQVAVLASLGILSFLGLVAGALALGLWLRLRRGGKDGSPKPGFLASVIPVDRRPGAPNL

T2: mIL11
T2 construct: also called murine IL-11 (NP_032376.1, Pro22-Leu199)
T2 cytokine chain: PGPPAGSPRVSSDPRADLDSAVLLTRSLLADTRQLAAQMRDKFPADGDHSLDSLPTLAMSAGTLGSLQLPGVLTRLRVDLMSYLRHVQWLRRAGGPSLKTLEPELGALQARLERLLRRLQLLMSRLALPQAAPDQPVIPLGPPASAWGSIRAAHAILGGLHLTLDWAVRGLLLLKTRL

T3: human IL-11 (AAH12506.1, Pro22-Leu199) (human, UniProt P20809 22-199)
T3 construct: The range Pro22-Leu199 counts on AAH12506.1; The Octet runs say only 'human IL-11'; also called hIL-11
T3 chain: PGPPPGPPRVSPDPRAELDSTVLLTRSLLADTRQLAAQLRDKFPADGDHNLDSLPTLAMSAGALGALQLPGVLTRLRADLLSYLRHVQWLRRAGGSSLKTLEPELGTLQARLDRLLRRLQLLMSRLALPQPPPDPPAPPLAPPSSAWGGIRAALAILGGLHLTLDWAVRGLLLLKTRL


Legend:
[1] = target: T1, human IL-11Rα, full length, stably …; experiment: cell-based or functional assay
[2] = target: T2, mIL11; experiment: direct ELISA, hybridoma supernatant on plate-immobilised murine IL-11, OD450
Excerpt: Murine anti-IL-11 hybridoma monoclones 5C2, 8C8, 16B5, 18A10, 18H10, 23G6 and 29C11 were obtained by murine hybridoma technology. The binding activity of the supernatants of those clones to human IL-11 (AAH12506.1, Pro22-Leu199; SEQ ID NO.128) and murine IL-11 (NP_032376.1, Pro22-Leu199; SEQ ID NO.129) immobilized on the surface of ELISA plates was detected via direct ELISA.

[3] = target: T3, human IL-11 (AAH12506.1, Pro22-Leu199); experiment: BLI (Octet QKe), antibody on anti-mouse Fc probe, human IL-11 300 nM
Procedure: When the hybridoma cells were cultured to a certain number, culture supernatants were collected and purified using Protein G affinity chromatography to obtain murine hybridoma antibodies (Hy5C2, Hy8C8, Hy16B5, Hy18A10, Hy18H10, Hy23G6 and Hy29C11). The affinity of the murine antibodies purified from the hybridoma supernatants was determined using an Octet QKe System instrument from Fortebio Inc. with an anti-mouse IgG Fc Capture biosensor to capture the Fc fragments of the antibodies, for which an anti-IL-11 antibody named “3C6-mFc” recombinantly expressed was used at the same concentration as a positive control. Specifically, a hybridoma supernatant was diluted with HBS-EP+ buffer (GE), and was allowed to pass through the surface of AMC probes (Cat: 18-5088, PALL), and so the antibody in the hybridoma supernatant was captured on the surface of the probes; then, human IL-11 diluted in the HBS-EP+ buffer (300 nM) was used as a mobile phase to react with the antibody captured on the surface of the probes. Both the binding and the dissociating were conducted for 300 seconds. When the experiment was finished, data from which response values of blank controls had been deducted was fitted using a 1:1 Langmuir binding model by software, and then kinetic constants for antigen-antibody binding were calculated. Binding signals were detected on the Octet QKe System instrument with Hy5C2, Hy8C8, Hy16B5, Hy18A10, and Hy18H10.

Row | EC50 of IL-11 in stimulating the transcriptional expression of STAT3-luc reporter gene [1] [ng/mL] | binding result [2] | Kd [3] [nM] | koff [3] [s⁻¹] | kon [3] [M⁻¹ s⁻¹] | Binder
1 | 0.11 | – | – | – | – | IL-11 (Cat. 12225-HNCE, Sino Biological Inc.) (ligand, UniProt P20809 22-199, looked up) PGPPPGPPRVSPDPRAELDSTVLLTRSLLADTRQLAAQLRDKFPADGDHNLDSLPTLAMSAGALGALQLPGVLTRLRADLLSYLRHVQWLRRAGGSSLKTLEPELGTLQARLDRLLRRLQLLMSRLALPQPPPDPPAPPLAPPSSAWGGIRAAHAILGGLHLTLDWAVRGLLLLKTRL
2 | – | binds | 1.09 | 0.00187 | 1.71e+06 | Hy18A10 (antibody, V domains shown, murine hybridoma antibody) VH: QVQLQQPGAELVKPGASVKMSCKASGYKFITYNMDWVKQTPGQGLEWIGTIYPGNGDTSYNQKFKGKATLTADKSSSTAYMQLSSLTSEDSAVYYCARGDLYALDYWGQGTSVTVSS VL: SIVMTQTPKFLLVSAGDRVTITCKASQSVSNDVAWYQQKPGQSPKLLIYSASNRYTGVPDRFTGSGYGTDFTFTINTVQAEDLAVYFCQHDYSSPYTFGGGTKLEIKR
3 | – | binds | 1.3 | 0.00204 | 1.51e+06 | Hy8C8 (antibody, V domains shown, murine hybridoma antibody) VH: DVQLVESGGGLVQPGGSRKLSCAASGFTFSSFGMHWVRQSPERGLEWVAYITSGSNTIYYADTVKGRFTISRDNPENTLFLQMTSLRSEDTAMYYCAREYYSYDEGFAYWGQGTLVTVSA VL: EIVLTQSPTTMAASPGEKITITCSVSSSISSNYLHWYQQKPGFSPKLLIYRTSNLASGVPARFSGSGSGTSHSLTIDTMEAEDVATYYCQQGVDVPFTFGSGTKLEIKR

— patent US20250197488A1 (MABWELL SHANGHAI BIOSCIENCE, published 2025)
